Source: patent US20220275038A1 (TOKYO MEDICAL UNIVERSITY, published 2022)

Experiments:
[1] = molecular target: human CLSP-MycHis (calmodulin-like skin protein, C-terminally tagged with MycHis) (human) (UniProt Q9NZT1); test: cell-based or functional assay
[2] = molecular target: CLSPCOL (hybrid polypeptide of CLSP(1-61), MycHisG and the collagen-homologous region of adiponectin) (human); test: cell-based or functional assay
[3] = molecular target: CLSP(1-61)-MycHis (N-terminal region of CLSP, amino acid 1-61, C-terminally tagged with MycHis) (human) (UniProt Q9NZT1); test: cell-based or functional assay
[4] = molecular target: T1, recombinant human ApoE4 (PeproTech, cat. no. 350-04) (human, UniProt P02649 19-317); test: plate coated with ApoE4, rising CLSP-HiBiT, chemiluminescence (Nano-Glo HiBiT), Scatchard analysis; ApoE4 on the plate
T1 construct: also called apolipoprotein E4
T1 sequence (P02649 19-317 C130R limits assumed): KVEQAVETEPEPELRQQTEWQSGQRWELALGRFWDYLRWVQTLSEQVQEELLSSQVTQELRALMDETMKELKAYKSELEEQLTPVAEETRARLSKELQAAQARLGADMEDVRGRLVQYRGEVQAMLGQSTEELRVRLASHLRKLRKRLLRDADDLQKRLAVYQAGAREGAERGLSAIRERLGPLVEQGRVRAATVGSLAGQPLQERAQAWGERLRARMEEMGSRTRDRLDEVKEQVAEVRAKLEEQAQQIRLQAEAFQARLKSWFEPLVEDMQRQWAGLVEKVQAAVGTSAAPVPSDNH
Description: (§1) The dissociation constants (Kd) for the binding between CLSP and adiponectin, and between CLSP and ApoE4 were then measured (FIGS. 8b and c). For this purpose, adiponectin or ApoE4 protein was conjugated to the 96-well plates. Various concentrations of recombinant CLSP C-terminally tagged with HiBiT, a chemiluminescence producing tag, were added to the plates for simultaneous incubation. After washing, the amount of CLSP-HiBiT binding to adiponectin or ApoE4 on the wells was measured. The dissociation constant between adiponectin and CLSP or between ApoE4 and CLSP was measured to be 8.8 or 7.8 pM respectively by Scatchard analysis (FIG. 8c).
(§2) The dissociation constant for the binding between ApoE4 (or adiponectin) and CLSP was measured using Nano-Glo HiBiT Extracellular Detection System (Promega, cat. no.: N2420) in accordance with the instruction. For the coating of recombinant ApoE4 or adiponectin, 100 μl of 50 mM carbonate buffer (pH 9.6) containing 20 pM ApoE4 or adiponectin was incubated overnight at 4° C. in the wells of 96-well plates (Fluorescence-use Black-type Plate H, cat. no.: MS-8596KZ, Sumitomo Bakelite Co., Ltd., Tokyo, Japan). The protein-coated plates were washed three times with 200 μl of PBS. Then, 150 μl of PBS containing 1% skim milk (GIBCO) was added to each well. […] Resulting chemiluminescence was measured for each well using Wallac ARVO™ X5 (Perkin Elmer). […]

[5] = molecular target: T1, recombinant human ApoE4 (PeproTech, …); test: Scatchard analysis; wells coated with 20 pM recombinant ApoE4, stepwise CLSP-HiBiT, HiBiT chemiluminescence [plot ApoE4]
Description: (§3) Dissociation constants were calculated by the Scatchard analysis using Prism7 software.
as §1
as §2, with “Japan).” for “Japan). The protein-coated plates were washed three times with 200 μl of PBS. Then, 150 μl of PBS containing 1% skim milk (GIBCO) was added to each well.”

[6] = molecular target: T2, human adiponectin (BioVendor, cat. no. RD172029100) (human, UniProt Q15848 19-244, limits assumed); test: Scatchard analysis; wells coated with 20 pM adiponectin, stepwise CLSP-HiBiT, HiBiT chemiluminescence [plot ADN]
T2 construct: Bought; also called ADN; wild-type adiponectin
T2 sequence: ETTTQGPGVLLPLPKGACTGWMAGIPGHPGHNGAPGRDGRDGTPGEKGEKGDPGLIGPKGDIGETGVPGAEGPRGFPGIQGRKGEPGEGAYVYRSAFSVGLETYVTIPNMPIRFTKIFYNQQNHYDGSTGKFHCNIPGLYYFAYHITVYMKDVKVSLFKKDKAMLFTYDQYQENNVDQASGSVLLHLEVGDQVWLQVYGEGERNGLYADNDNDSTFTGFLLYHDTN
Description: as §3, §1
as §2, with “Japan).” for “Japan). The protein-coated plates were washed three times with 200 μl of PBS. Then, 150 μl of PBS containing 1% skim milk (GIBCO) was added to each well.”

[7] = molecular target: T2, human adiponectin (BioVendor, cat. no. …); test: plate coated with adiponectin, rising CLSP-HiBiT, chemiluminescence (Nano-Glo HiBiT), Scatchard analysis; adiponectin on the plate
Description: as §1, §2

[8] = molecular target: T3, apolipoprotein E4 C-terminally tagged with FLAG (overexpressed in F11 cells, immunoprecipitated with FLAG … (human, UniProt P02649 19-317)); test: pull-down of purified MycHis-tagged CLSP proteins with ApoE4-FLAG immunoprecipitated on M2 agarose beads, WB anti-myc [ApoE4 beads]
T3 construct: also called ApoE4-FLAG; ApoE4; not shown: C-terminal FLAG tag
T3 sequence (P02649 19-317 C130R limits assumed): as the sequence (P02649 19-317 C130R limits assumed) above

[9] = molecular target: T3, apolipoprotein E4 C-terminally tagged …; test: pull-down with immunoprecipitated ApoE4-FLAG, immunoblot (FIG. 15 a, b)
Description: (a, b) <Apolipoprotein E4 binds to the C-terminal region of CLSP> A schematic illustration of deletion mutants of CLSP is shown in (a). Apolipoprotein E4 (ApoE4) and adiponectin (ADN), C-terminally tagged with FLAG, were overexpressed in F11 neurohybrid cells by transfection. At 24 hours after the transfection, the cell lysates of F11 cells were prepared. For immunoprecipitation of ApoE4-FLAG and ADN-FLAG using the FLAG antibody, 300 μg of cell lysates was used. Recombinant CLSP-MycHis (FL-MH) or C-terminally MycHis-tagged CLSP deletion mutants produced in bacteria were purified. These immunoprecipitates and recombinant proteins were then subjected to SDS-PAGE and immunoblot analysis using the myc and FLAG antibodies (inputs). The ApoE4-FLAG and ADN-FLAG immunoprecipitates were mixed with recombinant CLSP-MycHis (FL-MH) or C-terminally MycHis-tagged CLSP deletion mutants and incubated at 4° C. overnight, followed by exhaustive washing. The pulled-down precipitates were then subjected to SDS-PAGE and immunoblotted using the myc and FLAG antibodies. (c) <CLSP binds to the collagen-homologous region of adiponectin> The collagen-homologous region of adiponectin (ADNCol), N-terminally tagged with 6×His and G(HisG), was produced in bacteria. In addition, CLSP-FLAG was overexpressed in F11 neurohybrid cells by transfection. […]

## calreticulin
[1]
  inhibition of the CLSP-mediated protection of V642I-APP-induced neuronal death; concentration for complete inhibition of 10 nM CLSP: 50 nM
[2]
  inhibition of the cell death-suppressing activity of 100 pM CLSPCOL; concentration at which inhibition began: 1 nM
[3]
  inhibition of the cell death-suppressing activity of CLSP1-61 (cell death assay, FIG. 19): 10 fold amount

## recombinant GST-human 14-3-3σ (from UniProt P31947 1-248)
[1]
  inhibition of the CLSP-mediated protection of V642I-APP-induced neuronal death; concentration at which inhibition of 10 nM CLSP began: 10 nM
  inhibition of the CLSP-mediated protection of V642I-APP-induced neuronal death; concentration for complete inhibition of 10 nM CLSP: 20 nM
[3]
  inhibition of the cell death-suppressing activity of CLSP1-61 (cell death assay, FIG. 19): 10 fold amount

B1: CLSP-HiBiT (recombinant CLSP C-terminally tagged with HiBiT) (ligand)
chain: MAGELTPEEEAQYKKAFSAVDTDGNGTINAQELGAALKATGKNLSEAQLRKLISEVDSDGDGEISFQEFLTAAKKARAGLEDLQVAFRAFDQDGDGHITVDELRRAMAGLGQPLPQEELDAMIREADVDQDGRVNYEEFARMLAQEVSGWRLFKKIS
notes: HiBiT oligonucleotides were put into pGEX-2T-CLSP at the SmaI-EcoRI site; Made 'in the same way' as CLSP-MycHis (GST fusion, thrombin release); also called GST-CLSP-HiBiT (precursor)
[4]
  Kd: 7.8 pM
[5]
  Kd: 8.8 pM
[6]
  Kd: 7.8 pM
[7]
  Kd: 8.8 pM

B2: CLSP deletion mutant EHR, C-terminally tagged with MycHis (consists of only the endogenous humanin-homogenous region) (peptide)
chain: TGKNLSEAQLRKLISEVDSDGD
notes: also called mutants consisting of only EHR; not shown: C-terminal MycHis tag
[8]
  binding result: no binding

B3: CLSP(1-61)-MycHis (N-terminal region of CLSP, amino acid 1-61, C-terminally tagged with MycHis) (ligand)
chain: MAGELTPEEEAQYKKAFSAVDTDGNGTINAQELGAALKATGKNLSEAQLRKLISEVDSDGD
notes: Made in bacteria; not shown: C-terminal MycHis tag
[9]
  binding result: no binding
